# Source: publication doi:10.1101/2020.04.18.045682
# Legend:
# [1] = biological target: Cas10d (Synechocystis sp. PCC 6803); assay: affinity purification with mass spectrometry
# [2] = biological target: type I-D Cascade lacking Cas11d (Synechocystis sp. PCC 6803); assay: negative-stain electron microscopy, 3D reconstruction
stoichiometry N [1],stoichiometry N [2],Substance
6,,Cas7d (natural protein)
1,,Cas5d (natural protein)
2,2,Cas11d (natural protein)
1,,Cas6d (natural protein)
